Measured values taken from patent publication US11028172 (LEPU BIOPHARMA, dated 2021).

Key:
[1] = biological target: T1, human TIGIT expressed on cells (human, UniProt Q495A1 22-244); test: flow cytometry on human TIGIT overexpressing cells, Alexa Fluor 647 anti-human IgG; unit from the x axis
T1 construct: whole, on cells; also called human TIGIT overexpressed mammalian cells; human TIGIT cells
T1 sequence (looked up): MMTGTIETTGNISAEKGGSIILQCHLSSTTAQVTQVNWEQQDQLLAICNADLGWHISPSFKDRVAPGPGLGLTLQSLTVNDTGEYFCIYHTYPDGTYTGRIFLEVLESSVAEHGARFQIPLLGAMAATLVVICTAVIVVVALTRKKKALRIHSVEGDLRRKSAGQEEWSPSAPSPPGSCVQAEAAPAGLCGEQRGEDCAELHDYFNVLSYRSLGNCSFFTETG
Procedure: (§1) To evaluate the antigen binding property, the humanized antibodies were analyzed for their binding to human TIGIT overexpressed mammalian cells by FACS. Briefly, human TIGIT cells were firstly incubated with 3-fold serious diluted humanized antibodies starting at 5 µg/ml at 4° C. for 40 mins.

[2] = biological target: T1, human TIGIT expressed on cells; test: cell-based or functional assay
[3] = biological target: T1, human TIGIT expressed on cells; test: flow cytometry (FACS) on human TIGIT overexpressing mammalian cells
Procedure: as §1

[4] = biological target: T2, biotin-labeled human TIGIT protein (human, UniProt Q495A1 22-141, biotin-labeled (sites not given)); test: ELISA blocking assay: CD155-hFc coated, biotin-labeled human TIGIT, antibody titrated
T2 construct: also called recombinant human TIGIT
T2 sequence (looked up): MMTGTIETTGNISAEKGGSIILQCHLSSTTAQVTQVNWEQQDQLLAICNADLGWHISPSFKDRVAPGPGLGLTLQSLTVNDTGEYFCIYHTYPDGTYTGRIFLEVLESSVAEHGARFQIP
Procedure: To evaluate the blocking effects of Hu02 and Hu06 on recombinant human TIGIT to bind to its receptor CD155, an ELISA based receptor blocking assay was used.
Briefly, microtiter plates were coated with human CD155-hFc protein at 5 µg/ml in PBS, 100 µl/well at 4° C. overnight, then blocked with 150 µl/well of 1% BSA. 50 µl biotin-labeled human TIGIT protein and 3-fold dilutions of Hu02 and Hu06 antibodies starting from 10 µg/ml at 50 µl were added to each well and incubated for 1 hour at 37° C. The plates were washed with PBS/Tween and then incubated with Streptavidin-HRP for 10 mins at 37° C. After washing, the plates were developed with TMB substrate and analyzed by spectrophotometer at OD 450 nm.

mouse TIGIT protein = biological target: T3, mouse TIGIT protein (mouse, UniProt P86176 29-148, limits assumed); test: ELISA, mouse TIGIT coated at 0.5 µg/ml
T3 construct: Recombinant protein coated on the plate
T3 sequence (looked up): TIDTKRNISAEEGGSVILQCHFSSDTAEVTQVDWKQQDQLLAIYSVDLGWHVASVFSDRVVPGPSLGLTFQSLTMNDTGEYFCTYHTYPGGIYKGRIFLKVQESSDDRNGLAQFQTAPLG
Procedure: (§2) ELISA testing was carried out to evaluate the binding of chimeric antibodies to human, mouse, rat, and cyno TIGIT, respectively. Briefly, microtiter plates were coated with human, mouse, rat and cyno TIGIT proteins at 0.5 µg/ml in PBS, 100 µl/well at 4° C. overnight, then blocked with 150 µl/well of 1% BSA. Three-fold dilutions of chimeric antibodies or biotinylated chimeric antibodies starting from 10 µg/ml were added to each well and incubated for 1 hour at 37° C. The plates were washed with PBS/Tween and then incubated with Goat-anti-human IgG Fab antibody conjugated with Horse Radish Peroxidase (HRP) or Streptavidin-HRP for 30 mins at 37° C. After washing, the plates were developed with TMB substrate and analyzed by spectrophotometer at OD 450 nm.

human TIGIT-His protein [5] = biological target: T4, human TIGIT-His protein (human, UniProt Q495A1 22-141); test: SPR (Biacore) affinity ranking, human TIGIT-His
T4 construct: Recombinant protein; also called human TIGIT-his tag; hTIGIT-His
T4 sequence (looked up): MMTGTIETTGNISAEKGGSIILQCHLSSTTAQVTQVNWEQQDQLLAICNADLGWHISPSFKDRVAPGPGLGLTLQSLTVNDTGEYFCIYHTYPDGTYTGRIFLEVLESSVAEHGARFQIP

human TIGIT-His protein [6] = biological target: T4, human TIGIT-His protein; test: ELISA, plate coated with human TIGIT-His, anti-human IgG-HRP, OD 450nm; unit taken from the axis Log[Conc.]/ng/ml
Procedure: (§3) To evaluate the antigen binding activity, Hu02 and Hu06 were subjected to ELISA test. Briefly, microtiter plates were coated with human TIGIT-his protein at 0.5 µg/ml in PBS, 100 µl/well at 4° C. overnight, then blocked with 150 µl/well of 1% BSA. Three-fold dilutions of humanized antibodies starting from 3 µg/ml were added to each well and incubated for 1 hour at 37° C. The plates were washed with PBS/Tween and then incubated with Goat-anti-human IgG antibody conjugated with Horse Radish Peroxidase (HRP) for 0.5 hour at 37° C. After washing, the plates were developed with TMB substrate and analyzed by spectrophotometer at OD 450 nm.

[7] = biological target: T1, human TIGIT expressed on cells; test: cell-based or functional assay; remark: listed apart in the source
human TIGIT-His protein [8] = biological target: T4, human TIGIT-His protein; test: ELISA, plate coated with human TIGIT-His, anti-human IgG-HRP, OD 450nm; unit taken from the axis Log[Conc.]/ng/ml; remark: listed apart in the source
Procedure: as §3, with “the humanized antibodies” for “Hu02 and Hu06”, “30 mins” for “0.5 hour”

human TIGIT-His protein [9] = biological target: T4, human TIGIT-His protein; test: ELISA, human TIGIT-His coated
Procedure: To evaluate the binding activity of 76D12B10, the chimeric mAb was subjected to ELISA test. Briefly, microtiter plates were coated with human TIGIT-His protein at 0.5 µg/ml in PBS, 100µl/well at 4° C. overnight, then blocked with 150 µl/well of 1% BSA. Three-fold dilutions of 76D12B10 antibodies starting from 10 µg/ml were added to each well and incubated for 1 hour at 37° C. The plates were washed with PBS/Tween and then incubated with Goat-anti-human IgG antibody conjugated with Horse Radish Peroxidase (HRP) for 30 mins at 37° C. After washing, the plates were developed with TMB substrate and analyzed by spectrophotometer at OD 450 nm.
as §2

human TIGIT-His protein [10] = biological target: T4, human TIGIT-His protein; test: SPR (Biacore T200), antibody captured on CM5 chip, TIGIT-His as analyte
Procedure: The binding of the 76D12B10 antibodies to recombinant TIGIT protein (human TIGIT-his tag) was tested with BIACORE™ using a capture method. The 76D12B10 mAbs was captured using CM5 chip. A series dilution of human TIGIT-his tag protein was injected over captured antibody for 1 min at a flow rate of 30 µl/min. The antigen was allowed to dissociate for 300 s. All the experiment were carried out on a Biacore T200. Data analysis was carried out using Biacore T200 evaluation software.

human TIGIT-His protein [11] = biological target: T4, human TIGIT-His protein; test: SPR (Biacore T200) full kinetics, antibody captured on Protein A chip, hTIGIT-His as analyte
Procedure: The binding of the humanized antibodies to recombinant TIGIT protein (human TIGIT-his tag) was tested by BIACORE™ using a capture method. Hu02 and Hu06 mAbs were captured using Protein A chip. A serial dilution of human TIGIT-his tag protein was injected over captured antibody for 2 mins at a flow rate of 30 µl/min. The antigen was allowed to dissociate for 1800 s. All the experiment were carried out on a Biacore T200.

human TIGIT-His protein [12] = biological target: T4, human TIGIT-His protein; test: ELISA, plate coated with human TIGIT-His, anti-human IgG-HRP, OD 450nm; unit taken from the axis Log[Conc.]/ng/ml; remark: listed apart in the source
Procedure: To evaluate the antigen binding activity, LP010-02 (Hu02-human IgG1 Fc) and control antibody Tiragolumab (RG6058, Roche), which contains the same IgG1 Fc, were subjected to ELISA testing. Briefly, microtiter plates were coated with human TIGIT-his protein at 0.5 µg/ml in PBS, 100 µl/well at 4° C. overnight, then blocked with 150 µl/well of 1% BSA. Three-fold dilutions of humanized antibodies starting from 3 µg/ml were added to each well and incubated for 1 hour at 37° C. The plates were washed with PBS/Tween and then incubated with Goat-anti-human IgG antibody conjugated with Horse Radish Peroxidase (HRP) for 0.5 hour at 37° C. After washing, the plates were developed with the TMB substrate and analyzed by spectrophotometer at OD 450 nm.

LogEC50 [1]	EC50, NFAT luciferase reporter (RLU), TIGIT-CD226-NFAT effector cells with Raji-CD155 target cells [2] [nM]	LogEC50, NFAT luciferase reporter (RLU), TIGIT-CD226-NFAT effector cells with Raji-CD155 target cells [2]	EC50 [3] [µg/mL]	IC50 [4] [µg/mL]	binding result (mouse TIGIT protein)	Kd (human TIGIT-His protein [5]) [nM]	koff (human TIGIT-His protein [5]) [s⁻¹]	kon (human TIGIT-His protein [5]) [M⁻¹ s⁻¹]	EC50 (human TIGIT-His protein [6]) [ng/mL]	NFAT luciferase production, EC50 [7] [nM]	EC50 (human TIGIT-His protein [8]) [µg/mL]	EC50 (human TIGIT-His protein [9]) [ng/mL]	Kd (human TIGIT-His protein [10]) [nM]	koff (human TIGIT-His protein [10]) [s⁻¹]	kon (human TIGIT-His protein [10]) [M⁻¹ s⁻¹]	Kd (human TIGIT-His protein [11]) [nM]	koff (human TIGIT-His protein [11]) [s⁻¹]	kon (human TIGIT-His protein [11]) [M⁻¹ s⁻¹]	EC50 (human TIGIT-His protein [12]) [ng/mL]	Binder
1.57 Log[Conc.]/ng/ml	2.95	0.47 Log[Conc.]/nM	0.0368																	Tiragolumab (RG6058, Roche) (antibody, V domains shown) VH: EVQLQQSGPGLVKPSQTLSLTCAISGDSVSSNSAAWNWIRQSPSRGLEWLGKTYYRFKWYSDYAVSVKGRITINPDTSKNQFSLQLNSVTPEDTAVFYCTRESTTYDLLAGPFDYWGQGTLVTVSS VL: not shown
				1.11	no binding	0.0161	0.000182	1.13e+07	7.6	1.24	0.00937	8.57	0.259	0.000326	1.26e+06					76D12B10 chimeric antibody (antibody, V domains shown, Mouse variable regions of hybridoma clone 76D12B10; tested as chimeric mAb (detected with anti-human IgG); also called 76D12B10-Chimera; 76D12B10 chimera) VH: DVQLQESGPGMVKPSQSLSLTCTATGYSITSGYDWHWIRHFPGKKLEWMGFIRDSGSTVYNPSLKGRISITHDTSKNRFFLKLNSVTPEDTATYFCARGLFWYFDVWGTGTTVTVSS VL: DIQMTQSPASLSASVGETVTITCRTSENIFSYLAWYQQKQGNSPQLLVHNTKTLAEGVPSRFSGSGSGTQFSLKISNLQPEDFGSYYCQHHYGNPLTFGAGTKLELK
				1.13		0.0196	9.74e-05	4.98e+06	8.23	1.76	0.0103					0.0462	9.27e-05	2e+06		76D12B10-Hu02 (antibody, V domains shown, Humanized, VH.V2 + VK.V0) VH: EVQLQESGPGLVKPSETLSLTCAVSGYSISSGYDWHWIRQPPGKGLEWIGFIRDSGSTVYNPSLKGRITISHDTSKNQFSLKLSSVTAADTAVYYCARGLFWYFDVWGQGTTVTVSS VL: DIQMTQSPSSLSASVGDRVTITCRTSENIFSYLAWYQQKPGKVPKLLIYNTKTLAEGVPSRFSGSGSGTDFTLTISSLQPEDVATYYCQHHYGNPLTFGQGTKLEIK
				0.866		0.0136	0.000101	7.43e+06	9.34	1.67	0.0104					0.0416	7.18e-05	1.72e+06		76D12B10-Hu06 (antibody, V domains shown, Humanized, VH.V1 + VK.V1) VH: EVQLQESGPGLVKPSETLSLTCAVSGYSISSGYDWHWIRQPPGKGLEWIGFIRDSGSTVYNPSLKGRVTISHDTSKNQFSLKLSSVTAADTAVYYCARGLFWYFDVWGQGTTVTVSS VL: DIQMTQSPSSLSASVGDRVTITCRTSENIFSYLAWYQQKPGKVPKLLIHNTKTLAEGVPSRFSGSGSGTDFTLTISSLQPEDVATYYCQHHYGNPLTFGQGTKLEIK
1.52 Log[Conc.]/ng/ml	1.95	0.29 Log[Conc.]/nM	0.0328	0.531															6.54	LP010-02 (Hu02-human IgG1 Fc) (antibody, V domains shown) VH: EVQLQESGPGLVKPSETLSLTCAVSGYSISSGYDWHWIRQPPGKGLEWIGFIRDSGSTVYNPSLKGRITISHDTSKNQFSLKLSSVTAADTAVYYCARGLFWYFDVWGQGTTVTVSS VL: DIQMTQSPSSLSASVGDRVTITCRTSENIFSYLAWYQQKPGKVPKLLIYNTKTLAEGVPSRFSGSGSGTDFTLTISSLQPEDVATYYCQHHYGNPLTFGQGTKLEIK
